Measured values taken from US20230044467A1.
pKd: −log10 of the molar value.

Tests used:
[1] = biological target: Nα,Nε-diacetyl-L-Lys-D-Ala-D-Ala tripeptide; test: ITC, 25 C, one-site model
[2] = biological target: Nα,Nε-diacetyl-L-Lys-D-Ala-D-Ala tripeptide; test: ITC, tripeptide injected into 10 uM glycopeptide, 25 C, one-site model

| Substance | TΔS [1] [kJ/mol] | ΔG [1] [kJ/mol] | ΔH [1] [kJ/mol] | pKd [2] |
| --- | --- | --- | --- | --- |
| keratinimicin A (peptide) | 3.56 | -33.1 | -29.3 | 5.77 |
| keratinimicin C (peptide) | 0.837 | -31.8 | -31 | 5.55 |
| vancomycin (peptide) | -4.02 | -31.8 | -36 | 5.57 |
